B1: Mothers against decapentaplegic homolog 4 (Homo sapiens), Q13485 (parent)
chain: MDNMSITNTPTSNDACLSIVHSLMCHRQGGESETFAKRAIESLVKKLKEKKDELDSLITAITTNGAHPSKCVTIQRTLDGRLQVAGRKGFPHVIYARLWRWPDLHKNELKHVKYCQYAFDLKCDSVCVNPYHYERVVSPGIDLSGLTLQSNAPSSMMVKDEYVHDFEGQPSLSTEGHSIQTIQHPPSNRASTETYSTPALLAPSESNATSTANFPNIPVASTSQPASILGGSHSEGLLQIASGPQPGQQQNGFTGQPATYHHNSTTTWTGSRTAPYTPNLPHHQNGHLQHHPPMPPHPGHYWPVHNELAFQPPISNHPAPEYWCSIAYFEMDVQVGETFKVPSSCPIVTVDGYVDPSGGDRFCLGQLSNVHRTEAIERARLHIGKGVQLECKGEGDVWVRCLSDHAVFVQSYYLDREAGRAPGDAVHKIYPSAYIKVFDLRQCHRQMQQQAATAQAAAAAQAAAVAGNIPGPGSVGGIAPAISLSAAAGIGVDDLRRLCILRMSFVKGWGPDYPRQSIKETPCWIEIHLHRALQLLDEVLHTMPIADPQPLD
partner: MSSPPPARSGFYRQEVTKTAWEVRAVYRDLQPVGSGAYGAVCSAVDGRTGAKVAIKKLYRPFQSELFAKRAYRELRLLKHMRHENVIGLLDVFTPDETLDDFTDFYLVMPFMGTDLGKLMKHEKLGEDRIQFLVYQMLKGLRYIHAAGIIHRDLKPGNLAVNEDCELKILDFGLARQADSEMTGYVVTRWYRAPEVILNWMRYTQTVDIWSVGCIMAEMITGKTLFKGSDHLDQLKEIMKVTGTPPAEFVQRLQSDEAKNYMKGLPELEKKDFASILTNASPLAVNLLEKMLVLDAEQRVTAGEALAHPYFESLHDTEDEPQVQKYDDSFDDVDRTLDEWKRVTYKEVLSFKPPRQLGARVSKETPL
B2: Mothers against decapentaplegic homolog 4 (Homo sapiens), Q13485 (parent)
chain: B1 chain
partner: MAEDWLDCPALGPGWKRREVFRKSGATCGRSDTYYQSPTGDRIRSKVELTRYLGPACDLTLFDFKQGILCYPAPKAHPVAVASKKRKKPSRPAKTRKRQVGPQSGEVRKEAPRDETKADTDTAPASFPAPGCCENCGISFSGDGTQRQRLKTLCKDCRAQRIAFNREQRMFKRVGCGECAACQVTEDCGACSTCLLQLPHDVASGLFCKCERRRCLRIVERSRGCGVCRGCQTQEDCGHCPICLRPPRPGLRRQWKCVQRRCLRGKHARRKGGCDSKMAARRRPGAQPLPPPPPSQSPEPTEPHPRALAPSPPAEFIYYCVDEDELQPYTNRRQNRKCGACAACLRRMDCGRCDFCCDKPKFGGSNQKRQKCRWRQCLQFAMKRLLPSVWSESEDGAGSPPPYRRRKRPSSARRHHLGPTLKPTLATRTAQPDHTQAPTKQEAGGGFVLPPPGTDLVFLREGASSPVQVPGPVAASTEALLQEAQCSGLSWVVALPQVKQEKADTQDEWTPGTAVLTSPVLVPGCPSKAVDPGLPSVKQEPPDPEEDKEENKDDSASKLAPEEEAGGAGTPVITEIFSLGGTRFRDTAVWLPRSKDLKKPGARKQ
B3: Mothers against decapentaplegic homolog 4 (Homo sapiens), Q13485 (parent)
chain: B1 chain
partner: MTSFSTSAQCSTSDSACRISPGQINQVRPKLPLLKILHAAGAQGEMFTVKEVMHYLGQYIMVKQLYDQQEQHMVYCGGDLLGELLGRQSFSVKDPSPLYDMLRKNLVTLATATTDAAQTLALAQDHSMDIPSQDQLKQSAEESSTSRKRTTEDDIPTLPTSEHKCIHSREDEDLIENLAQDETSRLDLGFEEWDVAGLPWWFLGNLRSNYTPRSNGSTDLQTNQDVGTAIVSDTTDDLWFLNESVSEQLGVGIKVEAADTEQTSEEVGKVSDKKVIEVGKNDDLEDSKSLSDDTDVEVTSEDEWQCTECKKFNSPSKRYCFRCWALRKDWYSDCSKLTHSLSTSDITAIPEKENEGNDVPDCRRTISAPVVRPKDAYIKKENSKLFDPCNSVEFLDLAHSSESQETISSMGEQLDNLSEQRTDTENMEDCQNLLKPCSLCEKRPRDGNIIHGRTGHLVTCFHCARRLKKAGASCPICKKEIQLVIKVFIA
B4: Mothers against decapentaplegic homolog 4 (Homo sapiens), Q13485 (parent)
chain: B1 chain
partner: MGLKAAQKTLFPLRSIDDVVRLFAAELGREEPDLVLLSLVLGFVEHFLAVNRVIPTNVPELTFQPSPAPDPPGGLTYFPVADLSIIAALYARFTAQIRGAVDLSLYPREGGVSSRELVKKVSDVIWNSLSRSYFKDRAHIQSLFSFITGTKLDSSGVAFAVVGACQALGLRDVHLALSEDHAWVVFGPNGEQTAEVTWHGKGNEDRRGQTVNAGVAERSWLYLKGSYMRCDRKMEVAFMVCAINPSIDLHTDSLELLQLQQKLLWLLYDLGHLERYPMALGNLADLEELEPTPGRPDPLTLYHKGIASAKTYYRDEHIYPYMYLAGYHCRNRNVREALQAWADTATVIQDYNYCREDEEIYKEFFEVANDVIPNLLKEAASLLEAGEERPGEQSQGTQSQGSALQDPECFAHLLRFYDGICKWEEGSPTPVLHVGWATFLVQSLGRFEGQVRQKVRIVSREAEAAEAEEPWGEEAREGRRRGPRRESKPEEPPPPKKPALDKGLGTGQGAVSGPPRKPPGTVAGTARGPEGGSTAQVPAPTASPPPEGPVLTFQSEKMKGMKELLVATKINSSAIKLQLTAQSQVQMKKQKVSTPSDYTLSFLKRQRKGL

Variants of: B1
Conditions: with mk12_human MAPK12, P53778

Variant | effect of a mutation on the interaction
R361C | with no effect

Variants of: B1
Conditions: with mk12_human MAPK12, P53778
Remark: another data set of the same source

Variant | effect of a mutation on the interaction
R361H | with no effect

Variants of: B2
Conditions: with mbd1_human MBD1, Q9UIS9

Variant | effect of a mutation on the interaction
D351H | with no effect

Variants of: B2
Conditions: with mbd1_human MBD1, Q9UIS9
Remark: another data set of the same source

Variant | effect of a mutation on the interaction
G386D | with no effect

Variants of: B2
Conditions: with mbd1_human MBD1, Q9UIS9
Remark: another data set of the same source

Variant | effect of a mutation on the interaction
R361C | with no effect

Variants of: B2
Conditions: with mbd1_human MBD1, Q9UIS9
Remark: another data set of the same source

Variant | effect of a mutation on the interaction
R361H | with no effect

Variants of: B3
Conditions: with mdm4_human MDM4, O15151

Variant | effect of a mutation on the interaction
D351H | with no effect

Variants of: B3
Conditions: with mdm4_human MDM4, O15151
Remark: another data set of the same source

Variant | effect of a mutation on the interaction
G386D | with no effect

Variants of: B3
Conditions: with mdm4_human MDM4, O15151
Remark: another data set of the same source

Variant | effect of a mutation on the interaction
R361H | with no effect

Variants of: B4
Conditions: with men1_human MEN1, O00255

Variant | effect of a mutation on the interaction
D351H | with no effect

Variants of: B4
Conditions: with men1_human MEN1, O00255
Remark: another data set of the same source

Variant | effect of a mutation on the interaction
G386D | with no effect

Variants of: B4
Conditions: with men1_human MEN1, O00255
Remark: another data set of the same source

Variant | effect of a mutation on the interaction
R361C | with no effect
